Laboratory results taken from PMC3272785.

Substrate: Nc1nc(=O)[nH]cc1F
Experiment: steady-state kinetics
Format: biochemical, Saccharomyces cerevisiae
Conditions: Zn2+

B1: yeast cytosine deaminase (yCD) (Saccharomyces cerevisiae S288C) (protein)
chain: MASKWDQKGMDIAYEEAALGYKEGGVPIGGCLINNKDGSVLGRGHNMRFQKGSATLHGEISTLENCGRLEGKVYKDTTLYTTLSPCDMCTGAIIMYGIPRCVVGENVNFKSKGEKYLQTRGHEVVVVDDERCKKIMKQFIDERPQDWFEDIGE
**Q.** Which Km does the source give for B1 here?
**A.** 160 ± 10 µM

**Q.** And the kcat?
**A.** 17 ± 0.4 s⁻¹

**Q.** And the kcat/Km?
**A.** 106000 M⁻¹ s⁻¹
